± gives the standard deviation of the averaged measurements.
Assay: total protein half-life in vivo (active degradation + dilution); higher = more stable protein
[1] = E. coli NCM3722 delta-clpP delta-lon delta-hslV, growth: N-lim chemostat, doubling time 6 h
[2] = E. coli NCM3722 delta-hslV, growth: N-lim chemostat, doubling time 6 h
[3] = E. coli NCM3722 delta-lon, growth: N-lim chemostat, doubling time 6 h
[4] = E. coli NCM3722 delta-smpB, growth: N-lim chemostat, doubling time 6 h
[5] = wild type E. coli NCM3722, growth: C-lim chemostat, doubling time 3 h
[6] = wild type E. coli NCM3722, growth: C-lim chemostat, doubling time 6 h
[7] = wild type E. coli NCM3722, growth: C-lim chemostat, doubling time 12 h
[8] = wild type E. coli NCM3722, growth: N-lim chemostat, doubling time 6 h
[9] = wild type E. coli NCM3722, growth: N-lim chemostat, doubling time 12 h
[10] = wild type E. coli NCM3722, growth: P-lim chemostat, doubling time 6 h
[11] = wild type E. coli NCM3722, growth: P-lim chemostat, doubling time 12 h
[12] = E. coli NCM3722 delta-clpP, growth: N-lim chemostat, doubling time 6 h

## MIDLRSDTVTRPSRAMLEAMMAAPVGDDVYGDDPTVNALQDYAAELSGKEAAIFLPTGTQANLVALLSHCERGEEYIVGQAAHNYLFEAGGAAVLGSIQPQPIDAAADGTLPLDKVAMKIKPDDIHFARTKLLSLENTHNGKVLPREYLKEAWEFTRERNLALHVDGARIFNAVVAYGCELKEITQYCDSFTICLSKGLGTPVGSLLVGNRDYIKRAIRWRKMTGGGMRQSGILAAAGIYALKNNVARLQEDHDNAAWMAEQLREAGADVMRQDTNMLFVRVGEENAAALGEYMKARNVLINASPIVRLVTHLDVSREQLAEVAAHWRAFLAR
[1]
  total protein half-life in vivo: 5.25 ± 0.99 h
[2]
  total protein half-life in vivo: 4.88 ± 0.86 h
[3]
  total protein half-life in vivo: 5.53 ± 0.73 h
[4]
  total protein half-life in vivo: 4.18 ± 0.28 h
[5]
  total protein half-life in vivo: 3.162 ± 0.023 h
[6]
  total protein half-life in vivo: 5.88 ± 0.24 h
[7]
  total protein half-life in vivo: 10.8 ± 0.43 h
[8]
  total protein half-life in vivo: 4.39 ± 0.4 h
[9]
  total protein half-life in vivo: 6.44 ± 0.27 h
[10]
  total protein half-life in vivo: 5.87 ± 0.12 h
[11]
  total protein half-life in vivo: 11.2 ± 1.5 h

## MVEDILAPGLRVVFCGINPGLSSAGTGFPFAHPANRFWKVIYQAGFTDRQLKPQEAQHLLDYRCGVTKLVDRPTVQANEVSKQELHAGGRKLIEKIEDYQPQALAILGKQAYEQGFSQRGAQWGKQTLTIGSTQIWVLPNPSGLSRVSLEKLVEAYRELDQALVVRGR [P0A9H1]
[1]
  total protein half-life in vivo: 5.34 ± 0.42 h
[12]
  total protein half-life in vivo: 5.22 ± 0.42 h
[2]
  total protein half-life in vivo: 6.31 ± 1.5 h
[3]
  total protein half-life in vivo: 5.677 ± 0.045 h
[4]
  total protein half-life in vivo: 4.88 ± 0.35 h
[5]
  total protein half-life in vivo: 3.1514 ± 0.00069 h
[6]
  total protein half-life in vivo: 5.79 ± 0.27 h
[7]
  total protein half-life in vivo: 12.1 ± 1.1 h
[8]
  total protein half-life in vivo: 5.18 ± 0.47 h
[9]
  total protein half-life in vivo: 8.94 ± 0.12 h
[10]
  total protein half-life in vivo: 5.74 ± 0.3 h
[11]
  total protein half-life in vivo: 11.7 ± 0.27 h

## MSNQGEYPEDNRVGKHEPHDLSLTRRDLIKVSAATAATAVVYPHSTLAASVPAATPAPEIMPLTLKVNGKTEQLEVDTRTTLLDTLRENLHLIGTKKGCDHGQCGACTVLVNGRRLNACLTLAVMHQGAEITTIEGLGSPDNLHPMQAAFIKHDGFQCGYCTSGQICSSVAVLKEIQDGIPSHVTVDLVSAPETTADEIRERMSGNICRCGAYANILAAIEDAAGEIKS
[1]
  total protein half-life in vivo: 2.91 ± 0.9 h
[3]
  total protein half-life in vivo: 2.02 h

## MKGSYKSRWVIVIVVVIAAIAAFWFWQGRNDSRSAAPGATKQAQQSPAGGRRGMRSGPLAPVQAATAVEQAVPRYLTGLGTITAANTVTVRSRVDGQLIALHFQEGQQVKAGDLLAEIDPSQFKVALAQAQGQLAKDKATLANARRDLARYQQLAKTNLVSRQELDAQQALVSETEGTIKADEASVASAQLQLDWSRITAPVDGRVGLKQVDVGNQISSGDTTGIVVITQTHPIDLVFTLPESDIATVVQAQKAGKPLVVEAWDRTNSKKLSEGTLLSLDNQIDATTGTIKVKARFNNQDDALFPNQFVNARMLVDTEQNAVVIPTAALQMGNEGHFVWVLNSENKVSKHLVTPGIQDSQKVVIRAGISAGDRVVTDGIDRLTEGAKVEVVEAQSATTPEEKATSREYAKKGARS
[1]
  total protein half-life in vivo: 6.33 ± 0.75 h
[3]
  total protein half-life in vivo: 6.148 ± 0.046 h
[4]
  total protein half-life in vivo: 6.07 ± 0.51 h
[6]
  total protein half-life in vivo: 6.25 ± 0.65 h
[7]
  total protein half-life in vivo: 12.3 ± 0.27 h
[8]
  total protein half-life in vivo: 6.1255 ± 0.0044 h
[9]
  total protein half-life in vivo: 13.2 ± 0.32 h
[10]
  total protein half-life in vivo: 5.8716 ± 0.00037 h
[11]
  total protein half-life in vivo: 10.5 ± 0.89 h

## MIRLSEQSPLGTGRHRKCYAHPEDAQRCIKIVYHRGDGGDKEIRRELKYYAHLGRRLKDWSGIPRYHGTVETDCGTGYVYDVIADFDGKPSITLTEFAEQCRYEEDIAQLRQLLKQLKRYLQDNRIVTMSLKPQNILCHRISESEVIPVVCDNIGESTLIPLATWSKWCCLRKQERLWKRFIAQPALAIALQKDLQPRESKTLALTSREA
[1]
  total protein half-life in vivo: 3.47 h
[5]
  total protein half-life in vivo: 3.22 h
[6]
  total protein half-life in vivo: 7.68 h
[7]
  total protein half-life in vivo: 10.7 h

## MSKRRVVVTGLGMLSPVGNTVESTWKALLAGQSGISLIDHFDTSAYATKFAGLVKDFNCEDIISRKEQRKMDAFIQYGIVAGVQAMQDSGLEITEENATRIGAAIGSGIGGLGLIEENHTSLMNGGPRKISPFFVPSTIVNMVAGHLTIMYGLRGPSISIATACTSGVHNIGHAARIIAYGDADVMVAGGAEKASTPLGVGGFGAARALSTRNDNPQAASRPWDKERDGFVLGDGAGMLVLEEYEHAKKRGAKIYAELVGFGMSSDAYHMTSPPENGAGAALAMANALRDAGIEASQIGYVNAHGTSTPAGDKAEAQAVKTIFGEAASRVLVSSTKSMTGHLLGAAGAVESIYSILALRDQAVPPTINLDNPDEGCDLDFVPHEARQVSGMEYTLCNSFGFGGTNGSLIFKKI [P0AAI5]
[1]
  total protein half-life in vivo: 6.45 ± 1.9 h
[12]
  total protein half-life in vivo: 4.94 ± 0.21 h
[2]
  total protein half-life in vivo: 4.87 ± 0.28 h
[3]
  total protein half-life in vivo: 5.15 ± 0.41 h
[4]
  total protein half-life in vivo: 4.89 ± 0.14 h
[5]
  total protein half-life in vivo: 3.121 ± 0.02 h
[6]
  total protein half-life in vivo: 6.09 ± 0.35 h
[7]
  total protein half-life in vivo: 12.1 ± 0.42 h
[8]
  total protein half-life in vivo: 4.89 ± 0.34 h
[9]
  total protein half-life in vivo: 8.33 ± 0.17 h
[10]
  total protein half-life in vivo: 6.13 ± 0.29 h
[11]
  total protein half-life in vivo: 12.6 ± 0.18 h

## MNTVCTHCQAINRIPDDRIEDAAKCGRCGHDLFDGEVINATGETLDKLLKDDLPVVIDFWAPWCGPCRNFAPIFEDVAQERSGKVRFVKVNTEAERELSSRFGIRSIPTIMIFKNGQVVDMLNGAVPKAPFDSWLNESL [P0AGG4]
[1]
  total protein half-life in vivo: 5.02 ± 0.31 h
[12]
  total protein half-life in vivo: 2.89 ± 0.54 h
[2]
  total protein half-life in vivo: 2.37 ± 0.6 h
[3]
  total protein half-life in vivo: 5.32 ± 0.43 h
[4]
  total protein half-life in vivo: 2.48 ± 1.3 h
[5]
  total protein half-life in vivo: 1.6 ± 0.2 h
[6]
  total protein half-life in vivo: 3.09 ± 0.67 h
[7]
  total protein half-life in vivo: 5.03 ± 1.5 h
[8]
  total protein half-life in vivo: 2.26 ± 0.083 h
[9]
  total protein half-life in vivo: 3.44 ± 0.91 h
[10]
  total protein half-life in vivo: 2.24 ± 0.53 h
[11]
  total protein half-life in vivo: 4.54 ± 0.14 h

## MFRLNPFVRVGLCLSAISCAWPVLAVDDDGETMVVTASSVEQNLKDAPASISVITQEDLQRKPVQNLKDVLKEVPGVQLTNEGDNRKGVSIRGLDSSYTLILVDGKRVNSRNAVFRHNDFDLNWIPVDSIERIEVVRGPMSSLYGSDALGGVVNIITKKIGQKWSGTVTVDTTIQEHRDRGDTYNGQFFTSGPLIDGVLGMKAYGSLAKREKDDPQNSTTTDTGETPRIEGFSSRDGNVEFAWTPNQNHDFTAGYGFDRQDRDSDSLDKNRLERQNYSVSHNGRWDYGTSELKYYGEKVENKNPGNSSPITSESNTVDGKYTLPLTAINQFLTVGGEWRHDKLSDAVNLTGGTSSKTSASQYALFVEDEWRIFEPLALTTGVRMDDHETYGEHWSPRAYLVYNATDTVTVKGGWATAFKAPSLLQLSPDWTSNSCRGACKIVGSPDLKPETSESWELGLYYMGEEGWLEGVESSVTVFRNDVKDRISISRTSDVNAAPGYQNFVGFETGANGRRIPVFSYYNVNKARIQGVETELKIPFNDEWKLSINYTYNDGRDVSNGENKPLSDLPFHTANGTLDWKPLALEDWSFYVSGHYTGQKRADSATAKTPGGYTIWNTGAAWQVTKDVKLRAGVLNLGDKDLSRDDYSYNEDGRRYFMAVDYRF
[5]
  total protein half-life in vivo: 3.86 ± 0.058 h
[9]
  total protein half-life in vivo: > 16 h
[11]
  total protein half-life in vivo: > 16 h

## MERVYRTDLKLLRYFLAVAEELHFGRAAARLNMSQPPLSIHIKELENQLGTQLFIRHSRSVVLTHAGKILMEESRRLLVNANNVLARIEQIGRGEAGRIELGVVGTAMWGRMRPVMRRFLRENPNVDVLFREKMPAMQMALLERRELDAGIWRMATEPPTGFTSLRLHESAFLVAMPEEHHLSSFSTVPLEALRDEYFVTMPPVYTDWDFLQRVCQQVGFSPVVIREVNEPQTVLAMVSMGIGITLIADSYAQMNWPGVIFRPLKQRIPADLYIVYETQQVTPAMVKLLAALTQ
[12]
  total protein half-life in vivo: 3.26 ± 0.21 h
[2]
  total protein half-life in vivo: 3.03 h
[8]
  total protein half-life in vivo: 3.31 h
[9]
  total protein half-life in vivo: 5.46 h
